Common to all, as to assay type: biochemical
Data set [1] has as its target T1, Cdk5/p25 (Homo sapiens, UniProt Q00535). As to the kind of experiment: Ionic liquid-gated FET measurement of solution pH change during Cdk5/p25-catalysed phosphorylation of histone H1, steady state. The following applies: FET measurements, non-linear regression, measured differentially against control without ATP. An excerpt: With regard to enzyme activity and kinetics, the ultrasensitive FET devices measured activity and kinetics of proline directed kinase Cdk5. Under normal physiological conditions, Cdk5 is tightly regulated by either the p35 or p39 […] proteins. Oxidative stress causes a 10 kDa membrane anchored fragment of p35 to be cleaved, forming the pathological activator p25, resulting in deregulation and delocalization of the complex to the cytosol. […]
Cdk5 mediated phosphorylation results in the release of a proton during ATP hydrolysis and the transfer of a single phosphate group to either a serine or threonine residue immediately preceding a proline. Here, ionic liquid-gated FETs detected small changes in the solution pH during phosphorylation of the substrate protein, histone H1.
In each case, Vt,BG was estimated from an ID-VBG plot. To account for instrument drift, each data point in the figure was measured differentially with a control sample that was identical to the measured vials except for the absence of ATP, thereby inhibiting the phosphorylation reaction. […]
[formula] where k is a constant, [H1] is the concentration of histone H1 and γ is a scaling constant. For the FET measurements in FIG. 54, we estimated k=17.5±1.3 μM from a non-linear regression of the model to the measured data, consistent with previously published activity measurements for the pathological Cdk5/p25 complex. […]

The target of data set [2] is T1, Cdk5/p25. Description: Radioactively labeled γ-32P-ATP enzyme activity assay. The settings on record: radioactively labeled γ-32P-ATP assay.
The target in data set [3] is T1, Cdk5/p25. Description: FET time-series measurement of enzyme catalyzed phosphorylation (reaction kinetics). The following applies: Cdk5/p25 3.8 μM; [H1] 9.1, 12.7, 18.2 μM; independent of the histone H1 concentration. From the text: With reference to FIG. 53, FIG. 54, FIG. 55, and FIG. 56, ionic liquid-gate field-effect transistors (FET) were used for label-free enzyme activity and kinetics measurements. The proline directed kinase Cdk5 catalyzes the phosphorylation of substrate proteins (e.g., histone H1) in the presence of an activator (e.g., p25) and adenosine triphosphate (ATP). The hydrolysis of ATP results in the transfer of a single phosphate group to either a serine (Ser) or threonine (Thr) residue in the substrate protein and the release of a proton into solution, resulting in a change in solution pH. Moreover, ionic liquid-gate FETs measured change in solution pH as a function of the histone H1 concentration ([H1]) inferentially provide activity of Cdk5 under steady-state conditions. FET measurements were in quantitative agreement with a complementary assay that used radioactively labeled 32P-ATP as a reporter of Cdk5 activity. Time-series measurements of enzyme catalyzed phosphorylation as a function of [H1] […] The solid lines depict the reaction kinetics model that describes the time course of phosphorylation, while the dashed lines represent an estimate of the reaction velocity during the first 100 s after a change in the signal was detected.
The concentration of the Cdk5/p25 complex in these measurements was 3.8 μM (5-fold lower than the quantity used in FIG. 54 and FIG. 55). […]

T1 sequence (Q00535 whole entry, species assumed, the tested form may be a part): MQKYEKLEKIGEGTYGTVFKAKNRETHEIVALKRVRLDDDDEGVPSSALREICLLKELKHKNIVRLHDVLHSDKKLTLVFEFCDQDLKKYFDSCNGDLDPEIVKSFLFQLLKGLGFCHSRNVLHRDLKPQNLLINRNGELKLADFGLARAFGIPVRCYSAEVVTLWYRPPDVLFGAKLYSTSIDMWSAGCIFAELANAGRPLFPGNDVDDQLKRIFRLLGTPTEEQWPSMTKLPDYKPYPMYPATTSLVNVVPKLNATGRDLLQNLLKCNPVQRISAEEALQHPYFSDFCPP
T1 sequence (Q15078 99-307 partner limits assumed, species assumed): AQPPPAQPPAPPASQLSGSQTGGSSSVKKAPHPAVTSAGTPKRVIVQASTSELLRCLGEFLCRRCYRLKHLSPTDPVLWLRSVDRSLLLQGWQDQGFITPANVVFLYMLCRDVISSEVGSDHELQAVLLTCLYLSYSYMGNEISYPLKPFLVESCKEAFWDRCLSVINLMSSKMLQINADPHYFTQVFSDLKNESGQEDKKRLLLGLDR

Take histone H1: the “k (constant of kinase activity model versus histone H1 concentration)” value with Cdk5/p25 [1] came to 17.5 ± 1.3 µM; in the data set with Cdk5/p25 [2], 12.1 ± 2.3 µM. The “rate constant k1 (first order rate law)” value at Cdk5/p25 [3] was 0.18±0.02 per min.

Source of the values: patent US11493476B2, “Charge detector and process for sensing a charged analyte” (Government of the United States of America, as represented …, priority 2016, dated 2022).
